Results as given in the DeepSol protein solubility set.

Test: soluble on expression in E. coli; label from the status in PepcDB or PDB records

Row | Sequence | soluble on expression in E. coli
1 | MSNLYTELKNEWSKHAPNLTHCSRLLDGFKLELVRSNFGTIQTASSSKQKDQLIKSREMLEIAVEHSITIKDYAAFERYMAQLNTYYYDYDKYLESSKHMYKFMGLNLLYMLATNRLADFHIELERLPTALLLHDSFIQPVLALENYYMEGRYNKILQAKKSMPSEIYSNFMDILVNTAREEIASCMEKSYLKMAPKLAAQRLGLRPGSKELFELATKRQWCLDEEGNYDYAGLHTRPMEKVPAKDIATHNLTYAQELEKIVLEHHHHHH | not soluble
2 | MGSDKIHHHHHHMLPPLDSDLMRGFLAVVETGSLTRAGHRLGRTQSAISMQIRKLEDSLGQSVFVREPRGVRLTERGKQLLPYAQRVVGLLDEAAIALREKPLSGPVRVGVPDEYIQGVLPAVLSAFSQRHPETQVTLRCDFSAPQLEALNSDKIDLAVIYEGYSTDEVEVLAVDPTVWVTSISHAQHLHRPLPISIYFSSDWCRDFALHSLEQIGIPYFAAFECDTSGGMRSAVSNGIAVAPLARSSIPPGCRELTAEDGFMGVDNARVVLRRNPAGSSTAIEAMVATLREAFWPLTKNGGL | not soluble
3 | MGSDKIHHHHHHMIVLIGGEKGGSGKSCLAQNIAVFLTTECNASVIMVDCDPQRTTSDWIQARNNNPKLASINCVQLYGKIRNDLLSLEQHYDVVIVDCGGQDNLALRATMSVAAYILMPLRPKRRDLKTVCHMDDIVATCKMINPKLRASFVITQCPNLPNQANRILEAKEVCKTYDINVLDAITYCRNVYDDSEESGLSVIEIDPNGKAADEIRTIACELFQVDCAANLEDRLHPALLAQSAGKGQMHNGLTNSGLTNNGLLNNGLLHQTQPTHLNTKQRGQNGTQRPQEKRYAI | not soluble
4 | MRLLILGGTGDAAELSAKVATIPGIEAIASLAGRTREPSLPSGNVRVGGFGGAAGLADYLRQMQVDVLIDATHPFAAQISENAALAADEVEIPRLMLIRPPWVKVAGDRWIEVDTTSAAAAILKNQAKRVFLTVGRQELSAFAHLHDIWFLMRMIDPPAADALVPPGVILCDRGPFTLPQERDILIQHNIDTLVSKNSGGDATYAKIIAARELGVQVVMVNRPVVPACEQVTDADAAVAWLLEK | not soluble
5 | MGSDKIHHHHHHMNFETVIGLEVHVELKTKSKIFSSSPTPFGAEANTQTSVIDLGYPGVLPVLNKEAVEFAMKAAMALNCEIATDTKFDRKNYFYPDNPKAYQISQFDKPIGENGWIEIEVGGKTKRIGITRLHLEEDAGKLTHTGDGYSLVDFNRQGTPLVEIVSEPDIRTPEEAYAYLEKLKSIIQYTGVSDCKMEEGSLRCDANISLRPIGQEEFGTKTELKNLNSFAFVQKGLEHEEKRQEQVLLSGGVIQQETRRYDEATKKTILMRVKEGSDDYRYFPEPDLVELYIDDEWKERVKASIPELPDERRKRYIEELGLPAYDAMVLTLTKEMADFFEETVQKGAEAKQASNWLMGEVSAYLNAEQKELADVALTPEGLAGMIKLIEKGTISSKIAKKVFKELIEKGGDAEKIVKEKGLVQISDEGVLLKLVTEALDNNPQSIEDFKNGKDRAIGFLVGQIMKASKGQANPPMVNKILLEEIKKR | not soluble
6 | MSLGKLLFVDIGGTLLDYSNEVPRSAVDAIRKARAKGHRVYLSSGRSSAEVTSQLWDIGVDGLIGANGGYVESAQESVFHRRLSGEETRHIVEWLYNRGLEFYLESNNGLYASRGFREASKPVLSRLSEKTDVTVDSMYPDMFWGASLDRDDVNKISYIFNSQEDLDAAREAFPNLEHTTWGGQTGALFGTIGVSVNKKIGVDRLLKYLNADRANTIAFGDSDEDLSLFEASAYGVAMGEATESLKAAADLVTDAVGQDGLRNAFLKLELIDAEGHHHHHH | soluble
7 | MRYFINIYVFRIKKILVLSVVNHISMDNPFSKFTNSRTIQADLSLLEENYIPDSFPHREKQINDMVTILSSIMRNSRPSNIIVYGKTGTGKTSTTKYVTRMLQEATSNVEVIYVNCEIYDSPYSILVYVANFAGGEKIPELGWPVDRIYREAVDRINGTGKFFVIVLDEMDRLIKKSGGDSLYVLLKLMTDVENVKVSMIGITNDTTLLENLDSRIKSRLNQESIVFPPYNATEIRDIIASRLEKVFGPGVVDDTAINLCAAIGAQEHGDARKAIDLMRIAIEIAIRENRLKVTEKEVYEARDKYEMNVMHEAINTLPIHSKIVLLSAIVTQEIEPNSVITGEIYENYRRICEDLGFTPLTPRRISDLLTELSDYGLIVVDERNMGKYGRTRGFSVVKEIETIKKYLMEDENLSMFKTSKMTKQARFDS | not soluble
8 | MGFGFRHILTEREFTRSFAIQRKLKVIAEEIKADVIITHDTGCTTTFEKNQWIGKAHGMYYPVAVMSDVMFSALACGAHPFKVVQLYWNCSNYEPLLEKMGITNWRELKKEWEDTVKYIAELEKQGKYDELLEFFKEYDLYEPYSKTSDGFKLRKSATADLPLFKS | not soluble
9 | MKDVIEKRHIRAEVPIELTWDLSDLYESDKKWETALRVLTDDIKKLDAFKGQLHTSPTTLLHCLLLEEELLMKLTKLYSYANLKESTDRTNPVIQANSSKIAALWTKVHTALSFIHNEILSLEEGTIEKYLTKETKLEPFRKSLLDILQKRQYTLSPETEEALAALGEVHSSPYKIYGMTKLADMDFNSIQDEQGNELPVSFSLFESKYEFSPSVDIRRKAYSSFVSTLKRYKNTVATTYATEVKKQVTLSRLRKFESVTHMLLEPQNVPLEMYNNQLDIIYKELAPHMRRFADLKKKVLGLDQMLFCDLHAPLDPEFNPAITYEEAGKLIQDSLQVLGDEYSAIIKKGFKERWVDLADNVGKSTGAFCSSPYGSHPYILITWQNTMRGCFTLAHEFGHAGHFYLANKNQRIMNVRPSMYFVEAPSTMNELLLAQHLLATTDDKRMRRWVILQLLGTYYHNFVTHLLEGEYQRRVYSLAEEGEALTATTLTEIKTNVLSTFWGNSVEIDEGAGLTWMRQPHYYMGLYSYTYSAGLTASTAVAQMIKEEGQPAVDRWLDVLRAGGTMKPLELMKHAGVDMSKPDAIRKAVSYVGSLIDELERSYEE | not soluble
10 | MGSDKIHHHHHHMKIILTTSMSGLGGTETATVRLGRLLKRHGHDIILASSDGPFVGEAQASGIRWQPVDFYRGGLAGYLKSTFAYARMLRREQPDIIDCQMARVVPACALAAKIVSPKTKIICHSHGLDAATYPKTAKLFDKLGAYIIGNCKHEREKLIRHGFPAGRIAYAYNTPPEFHFRKTEKECAVLGTLSRLDTVRAVHLMLDILKKMVGRNIPVRLNMAGIGEEMDNLKAQAKRLGIEDKVTFLGGVRDLTGYFKEVDILVNTPHCVGDHGAGVGNNILEAGLYDTPVVTYNMAGISEMVITGQTGYCIPFGDDEAFIEAVDTLIKHPELRSQMGKALHKHVETLCSDDEIYRTTMAAYEM | not soluble
11 | RLHSDNVYLIENNVFGTTCARVGCMPSKLLIAAAEARHHALHTDPFGVHLDKDSIVVNGEEVMQRVKSERDRFVGFVVADVEEWPADKRIMGSAKFIDEHTVQIDEHTQITAKSFVIATGSRPVILPQWQSLGNRLIINDDVFSWDTLPKRVAVFGPGVIGLELGQALHRLGVKVE | not soluble
12 | MDPNQPVKFTEFMPDSGGIRTKFIVKGSNFGEDKSQVKVYFKDEVGNEREALVLGVKPDVIYAQVPKQAGGESHVRVEIAGKEAELSNAEKTFKYIVTSSVSTVVGKAKEGGNKDGTLGETTFNTPRYVAVDNDDNVFIFDSDGRTRLSSIEQNKTITLLDGMVIDQPLFIDKEKKQLFGPCDNANFGCFLFDANVSWVADKMGQLLANGGWMHSVVLDPVDSTFVIYRQNTGQLWTQPFDKNRRTLNPNKAKRIGTLYNTGSNGLCAYNPVDKYVYCVLHSKSAVYRFKLTRDADGWPALDGDIDEYIPGAGAGFRDGDVQEAQFKEPRGIAIDKEGNLYIADVGNNRIRKVDTKLNVVTTIAGSGAAGYKDGDPLEAQFNQPWGVYLDKNEFLYIADQNNHCIRKLAIELEHHHHHH | not soluble
13 | MSRTIMLIPISAGVGLTSVSMGLLRAMERKGVSVSFYKPIAQPRTGDDQPDLTSTVMSRNSDIKIGQPMSMSAAETLIGSEKMDVLLETVVERYNQINKDAEVTLIEGLVPTRKHPFANQVNAEIANTLGAEIVFVATPGTDNPTQLKERIEVACSNFGGTKNKSISGVIINKLNAPVDEAGRTRPDLSEIFDDADHAKQANLEVMQIFNTSPIRVLGCVPWSIDLIATRAIDMAKHLKAE | not soluble
14 | MDFDMIEEKKDSVIVRNVENFELKDIFDCGQCFRWHRQENGNYIGIAFEKVVEVQKIGEDVVIYNINEEEFKNVWSEYFDLYRDYGEIKKELSRDPLLKKSVDFGEGIRILRQDPFEILLSFIISANNRIPMIKKCINNISEKAGKKLEYKGKIYYAFPTVDKLHEFTEKDFEECTAGFRAKYLKDTVDRIYNGELNLEYIKSLNDNECHEELKKFMGVGPQVADCIMLFSMQKYSAFPVDTWVKKAMMSLYVAPDVSLKKIRDFGREKFGSLSGFAQQYLFYYARENNIQL | soluble
15 | EYKPKKGLASCWLSSKSHTLLNEEDFFTKDERIGIRKDYEGATNDDAFFCQRYYRFKNFKEVEGEKTKVCKQPPVREHDFCFAVLLETHRDIKHEELNKRIVYLGGERQPFLMDLMEVSEETFKLNIESSTLTSDEKHYTVVLLSDAMIEPKLLEGVKFASTEVKDFACLLTHVGTRRFYNKKKKREEQNIEEVETALSHQHELYARGSVFYFDTKEQANQFCEDLEKVPNFHTIGYNHAIIIEPTKTKK | not soluble
16 | MSLKSYGAVKRISGKNRYVLSENIAKQMGSYDKAIVVTGRVFQDALAIAPYAAAHGYPILLTEKDKLPDYDLPKQVIIIGSSFSVSDSVENQIKKTSEGHHHHHH | soluble
17 | MRKIKLIAVVGPTAVGKTALGIELAKTFNGEIISGDSQQVYQKLDIGTAKASKEEQEQAYHHLIDVREVNENYSVYDFVKEAKVAIDTIISKGKIPIIVGGTGLYLQSLFEGYHLGGEVNQETLMAYREKLESLSDEDLFEKLTEQSIIIPQVNRRRAIRALELAKFGNDLQNSESPYDVLLIGLNDDRQVLYDRINRRVDLMMDNGLLDEAKWLYDNYPSVQASKGIGYKELFPYFSKQIPLEEAVDKLKQNTRRFAKRQLTWFRNRMNVEFIMVGEENYQQKIKRKVSDFLSSKLEHHHHHH | soluble
18 | SKSINVDQISIRSLSEPANPFSFWQWIFIYLPGLKEDEKQEILTHEQTHVRQWHSIDVIISEIVNIICWMNPFAWLLKTEIRLNLEYLADHKVMESGTNKKAYQYHLLGLA | not soluble
19 | MGSDKIHHHHHHMIVTEHSTRPLGEEGLANYVQRLRGQLSLTQKELSFKAGIHIQTIRKIEGGQTNRLNQKAKGGLAAALGIPPEYLDAAAKKVSPETITTLKFCPKCWTPGTTPDQMWTDLRSKYCFACGTALRNRCVSCNEPIMSLKFKFCPYCGANYKQNQTTS | not soluble
20 | MGSDKIHHHHHHMKTDITVVKASHLQPFISFLDKVGAPLDRLLNQVNLHADYFSDQENLIAEAPFWALLEHASYSQGIEDLGFQVTEQLSLDSFGVFGAKVMQADSLHQALTTFIRDMGQQSNCPPFWLMEQGAFVWFCRLGTQGIKKGHWPIEQHVISLMIQLVRGFTTATWTPPKVHLQTHTLKGADNTASFSNSQILINKAFTGICISKSLLLNGAVIKPKDRVAEEVAHQMTISTVNSHVIKELLMQSCANQPLNAQQIANSLGLNIRHMQRLLKEEGCSYRELSEQVLFKQSQVMLSTEQLSVLEVALALGYSDAANFTRAFKRWSGLSPTQYKLLLN | not soluble
21 | MSGTASKGSSSDSASEKTEMRTYKSPKGNVNIPAHPKRIVTDFYAGELLSVGANVVGSGSWSFDNPFLKSKLKNVKDVGDPISVEKVMELQPDLIVVMNEENVDKLKKIAPTVVIPYNTAKNVEDTVSMFGDIAGAKDQAKSFMADFNKKAEAAKKKIAGVIDKDATFGIYENTDKGEFWVFNDNGGRGGQAVYNALGLKAPEKIEQDVIKKGEMKQLSQEVIPEYAADYMFITDYNPKGESKTLDKLENSSIWKNLDAVKHNRVFINDFDSFYPYDPISVSKQVDIITDMLIKRAEENLEHHHHHH | soluble
